Reference: patent US20200182882A1

Key:
[1] = molecular target: T1, CD20 on a CD20 expressing target cell line (Wil2-S) (UniProt P11836); assay: cell-based or functional assay
T1 sequence (looked up): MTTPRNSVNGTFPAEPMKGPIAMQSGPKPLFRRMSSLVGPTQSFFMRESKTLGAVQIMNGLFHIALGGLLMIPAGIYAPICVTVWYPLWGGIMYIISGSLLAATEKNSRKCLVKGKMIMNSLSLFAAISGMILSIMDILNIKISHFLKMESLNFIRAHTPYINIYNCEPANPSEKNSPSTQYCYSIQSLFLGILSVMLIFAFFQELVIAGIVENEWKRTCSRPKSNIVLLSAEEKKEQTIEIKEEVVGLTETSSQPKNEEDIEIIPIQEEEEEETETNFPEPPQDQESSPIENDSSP

[2] = molecular target: CD3 (TCR complex subunit) on T cells (Jurkat reporter cells; human PBMC T cells) (human) (UniProt P07766); assay: cell-based or functional assay
Chain of UniProt P07766 (P07766 23-207, one chain of several): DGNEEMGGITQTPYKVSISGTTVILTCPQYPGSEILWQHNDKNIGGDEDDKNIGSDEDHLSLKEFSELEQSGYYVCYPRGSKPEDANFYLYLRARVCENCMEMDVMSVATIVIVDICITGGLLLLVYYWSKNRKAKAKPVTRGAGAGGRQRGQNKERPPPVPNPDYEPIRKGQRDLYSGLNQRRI

EC50 of T cell activation (CD69+/CD25+), Human PBMC Donor 1, in presence of target cells [1]: 5.5 ng/mL
EC50 of T cell activation (CD69+/CD25+), Human PBMC Donor 2, in presence of target cells [1]: 4.4 ng/mL
EC50 of luciferase reporter activity, Jurkat/NFκBLuc, in presence of target cells [1]: 1.3 ng/mL
EC50 of T cell activation (CD69+/CD25+), Human PBMC Donor 1, in presence of target cells [2]: 5.5 ng/mL
EC50 of T cell activation (CD69+/CD25+), Human PBMC Donor 2, in presence of target cells [2]: 4.4 ng/mL
EC50 of luciferase reporter activity, Jurkat/NFκBLuc, in presence of target cells [2]: 1.3 ng/mL
luciferase activity of Jurkat/NFκBLuciferase clone 2 in the presence of a CD20 expressing target cell line, against anti-CD3 homodimer [2]: 1000 fold
B1: αCD20/αCD3 TDB (bispecific antibody, from a related filing, V domains shown)
VH 1: EVQLVESGGGLVQPGGSLRLSCAASGYTFTSYNMHWVRQAPGKGLEWVGAIYPGNGDTSYNQKFKGRFTISVDKSKNTLYLQMNSLRAEDTAVYYCARVVYYSNSYWYFDVWGQGTLVTVSS
VL 1: DIQMTQSPSSLSASVGDRVTITCRASSSVSYMHWYQQKPGKAPKPLIYAPSNLASGVPSRFSGSGSGTDFTLTISSLQPEDFATYYCQQWSFNPPTFGQGTKVEIKR
VH 2: EVQLVQSGAEVKKPGASVKVSCKASGYTFTNYYIHWVRQAPGQGLEWIGWIYPGDGNTKYNEKFKGRATLTADTSTSTAYLELSSLRSEDTAVYYCARDSYSNYYFDYWGQGTLVTVSS
VL 2: DIVMTQSPDSLAVSLGERATINCKSSQSLLNSRTRKNYLAWYQQKPGQPPKLLIYWASTRESGVPDRFSGSGSGTDFTLTISSLQAEDVAVYYCTQSFILRTFGQGTKVEIK
